Where no end group is shown, it is not given here. [ ]: non-standard residue; d: D form. 4Pal = N[C@@H](Cc1ccncc1)C(=O)O; Dab = NCC[C@H](N)C(=O)O; Aib = CC(C)(N)C(=O)O
T1: human GIP receptor (hGIP-R) (Homo sapiens, UniProt P48546)
T1 construct: expressed in transfected cells; host or cells: HEK-293 clonal cell line
T1 sequence (P48546 22-466): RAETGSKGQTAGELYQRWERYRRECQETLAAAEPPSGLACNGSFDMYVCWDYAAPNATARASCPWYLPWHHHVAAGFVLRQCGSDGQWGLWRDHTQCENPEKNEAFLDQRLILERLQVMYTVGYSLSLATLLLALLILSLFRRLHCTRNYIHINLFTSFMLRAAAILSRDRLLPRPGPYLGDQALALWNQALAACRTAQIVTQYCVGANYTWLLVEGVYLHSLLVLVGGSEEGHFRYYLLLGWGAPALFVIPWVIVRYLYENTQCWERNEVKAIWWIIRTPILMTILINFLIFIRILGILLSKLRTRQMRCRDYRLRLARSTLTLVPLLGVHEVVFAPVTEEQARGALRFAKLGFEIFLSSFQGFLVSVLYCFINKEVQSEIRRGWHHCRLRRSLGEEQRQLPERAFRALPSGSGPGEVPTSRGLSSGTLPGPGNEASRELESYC


Experiments:
[1] = target: T1, human GIP receptor (hGIP-R); experiment: cAMP functional activity assay, hGIP-R HEK-293 cells; format: cell-based
Description: After a sixty-minute incubation at room temperature, the resulting increase in intracellular cAMP is quantitatively determined using a cAMP Dynamic 2 HTRF Assay Kit (62AM4PEJ; CisBio; Codolet, FR). Briefly, cAMP levels within the cell are detected by adding a cAMP-d2 conjugate in cell lysis buffer (10 μl) followed by an anti-cAMP-Eu3+-Cryptate antibody, also in cell lysis buffer (10 μl). […] A relative EC50 value and percent top (Emax) are derived by non-linear regression analysis using the percent maximal response vs. the concentration of peptide added, fitted to a four-parameter logistic equation.

[2] = target: T2, human GLP-1 receptor (hGLP-1R) (Homo sapiens, UniProt P43220); experiment: cAMP functional activity assay, hGLP-1R HEK-293 cells; format: cell-based; settings: HEK293; percent of response to 10 nM GLP-1(7-36)NH2; mean ± SEM
T2 construct: expressed in transfected cells; host or cells: HEK-293 clonal cell line
T2 sequence (P43220 24-463): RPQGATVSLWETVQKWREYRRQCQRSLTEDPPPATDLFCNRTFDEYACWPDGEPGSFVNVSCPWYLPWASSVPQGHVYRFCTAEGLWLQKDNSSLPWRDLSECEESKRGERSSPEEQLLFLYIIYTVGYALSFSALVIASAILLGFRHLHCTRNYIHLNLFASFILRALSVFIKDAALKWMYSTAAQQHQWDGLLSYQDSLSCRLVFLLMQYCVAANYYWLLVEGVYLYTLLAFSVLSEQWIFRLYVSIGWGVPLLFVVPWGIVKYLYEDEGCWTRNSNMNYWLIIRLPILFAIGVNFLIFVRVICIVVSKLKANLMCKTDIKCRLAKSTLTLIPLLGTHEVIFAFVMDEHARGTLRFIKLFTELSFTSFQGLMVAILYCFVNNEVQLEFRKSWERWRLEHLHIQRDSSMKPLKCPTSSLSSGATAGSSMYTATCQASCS

[3] = in vivo; settings: male, Yucatan miniature swine, pig, sc, 10 ug/kg
Description: 1. […] The compounds and an analog as an internal standard are extracted from […] by antibody or protein precipitations. The intact mass of the compounds are detected by a Q Exactive® Orbitrap® Mass Spectrometer (Thermo Fisher Scientific; Waltham, Mass.). 2. […] Blood is collected at pre-dose, 2, 5, 10, 15, 20, 25, 30, 45, 60, 75, 90, 120 and 150 minutes post-dose, and plasma is obtained for pharmacokinetic characterization. […] Blood is collected at pre-dose, 2, 5, 10, 15, 20, 25, 30, 45, 60, 75, 90, 120 and 150 minutes postdose, and plasma is obtained for pharmacokinetic characterization.

[4] = target: human GIP receptor (human) (UniProt P48546); experiment: cell-based or functional assay
[5] = target: T3, rat glucagon receptor (rat, UniProt P30082 27-485); experiment: cell-based or functional assay
T3 sequence (P30082 27-485): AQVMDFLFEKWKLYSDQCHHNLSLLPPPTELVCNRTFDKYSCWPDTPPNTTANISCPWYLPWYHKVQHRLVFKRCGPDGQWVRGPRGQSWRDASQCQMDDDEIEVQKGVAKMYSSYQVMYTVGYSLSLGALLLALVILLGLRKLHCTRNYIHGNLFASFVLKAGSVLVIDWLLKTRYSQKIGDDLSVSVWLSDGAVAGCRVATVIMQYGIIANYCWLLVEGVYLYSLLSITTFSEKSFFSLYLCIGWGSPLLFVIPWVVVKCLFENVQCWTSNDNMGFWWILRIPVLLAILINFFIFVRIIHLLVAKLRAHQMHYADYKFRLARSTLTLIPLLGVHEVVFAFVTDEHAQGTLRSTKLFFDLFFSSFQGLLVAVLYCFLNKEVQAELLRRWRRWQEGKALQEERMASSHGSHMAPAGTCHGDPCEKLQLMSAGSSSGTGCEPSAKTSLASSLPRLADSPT

[6] = target: T4, human glucagon receptor (human, UniProt P47871 26-477); experiment: cell-based or functional assay
T4 sequence (P47871 26-477): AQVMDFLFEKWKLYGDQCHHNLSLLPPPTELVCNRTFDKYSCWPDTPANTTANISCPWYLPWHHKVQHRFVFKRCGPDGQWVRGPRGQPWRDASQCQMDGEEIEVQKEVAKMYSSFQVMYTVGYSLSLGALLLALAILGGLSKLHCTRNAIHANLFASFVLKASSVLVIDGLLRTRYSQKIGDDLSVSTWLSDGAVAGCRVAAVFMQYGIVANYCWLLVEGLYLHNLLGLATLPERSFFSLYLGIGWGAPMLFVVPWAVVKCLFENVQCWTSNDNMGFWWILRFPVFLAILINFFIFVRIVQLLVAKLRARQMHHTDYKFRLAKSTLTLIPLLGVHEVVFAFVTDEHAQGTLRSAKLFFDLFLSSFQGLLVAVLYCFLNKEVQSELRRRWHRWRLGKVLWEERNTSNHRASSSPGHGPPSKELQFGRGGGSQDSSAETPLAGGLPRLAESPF

[7] = target: T5, human GLP-1 receptor (human, UniProt P43220 24-463); experiment: cell-based or functional assay
[8] = target: T3, rat glucagon receptor; experiment: SPA competition with 125I-labelled glucagon on rGCGR membranes
Description: (§1) Plates are sealed, mixed on a plate shaker, and read with a MicroBeta™ scintillation counter (PerkinElmer) after 12 hr of settling time at room temperature.
The SPA receptor binding assay and calculation of the results are carried out as described in the hGCGR binding assay.

[9] = target: T4, human glucagon receptor; experiment: SPA competition with 125I-labelled glucagon on hGCGR membranes
Excerpt: as §1

[10] = target: T5, human GLP-1 receptor; experiment: cell-based or functional assay; remark: listed apart in the source
[11] = target: T4, human glucagon receptor; experiment: cell-based or functional assay; remark: listed apart in the source

| Molecule | Emax at 9.95 µM ([1]; HEK293, percent of response to 10 nM GIP(1-42)NH2, Examples at 9.95 μM, read-out: Emax hGIPR) [%] | EC50 ([1]; in the presence of FBS and BSA, read-out: cAMP EC50 hGIPR) [nM] | Emax [2] [%] | AUC(0-inf) ([3]; AUC0-inf) [ng·h/mL] | CL/F ([3]; CL/F) [mL/min/kg] | Emax (% of response to 10 nM GIP(1-42)NH2), at 9.95 µM [4] [%] | cAMP EC50 [4] [nM] | cAMP EC50 [5] [nM] | cAMP EC50 [6] [nM] | cAMP EC50 [7] [nM] | Ki [8] [nM] | Ki [9] [nM] | Emax (% of response to 10 nM GLP-1(7-36)NH2) [10] [%] | Emax (% of response to 1 nM Glucagon) [11] [%] |
| --- | --- | --- | --- | --- | --- | --- | --- | --- | --- | --- | --- | --- | --- | --- |
| CC(C)C[C@H](NC(=O)[C@H](Cc1ccncc1)NC(=O)[C@H](CCCCN)NC(=O)[C@@H](NC(=O)[C@H](Cc1ccccc1)NC(=O)[C@H](C)NC(=O)[C@H](CCC(N)=O)NC(=O)[C@H](C)NC(=O)[C@H](CCCNC(=N)N)NC(=O)[C@H](CCCNC(=N)N)NC(=O)C(C)(C)NC(=O)[C@H](CC(=O)O)NC(=O)[C@H](CC(C)C)NC(=O)[C@H](Cc1ccc(O)cc1)NC(=O)[C@H](CCCCN)NC(=O)[C@H](CO)NC(=O)[C@H](Cc1ccc(O)cc1)NC(=O)[C@H](CC(=O)O)NC(=O)[C@H](CO)NC(=O)[C@@H](NC(=O)[C@H](Cc1ccccc1)NC(=O)[C@@H](NC(=O)CNC(=O)[C@H](CCC(N)=O)NC(=O)[C@H](CO)NC(=O)[C@@H](N)Cc1c[nH]cn1)[C@@H](C)O)[C@@H](C)O)C(C)C)C(=O)N[C@@H](CC(C)C)C(=O)N[C@@H](CO)C(=O)N[C@H](C(=O)O)[C@@H](C)O [Example 2] | < 5 | > 9950 | 109 ± 4 | 1.92 | 87 | – | – | – | – | – | – | – | – | – |
| HS[Dab](Ac)GTFTSDYSKYLD[Aib]RRAQAFVK[4Pal]LLST-OH (N-terminus assumed; SMILES CC(=O)NCC[C@H](NC(=O)[C@H](CO)NC(=O)[C@@H](N)Cc1c[nH]cn1)C(=O)NCC(=O)N[C@H](C(=O)N[C@@H](Cc1ccccc1)C(=O)N[C@H](C(=O)N[C@@H](CO)C(=O)N[C@@H](CC(=O)O)C(=O)N[C@@H](Cc1ccc(O)cc1)C(=O)N[C@@H](CO)C(=O)N[C@@H](CCCCN)C(=O)N[C@@H](Cc1ccc(O)cc1)C(=O)N[C@@H](CC(C)C)C(=O)N[C@@H](CC(=O)O)C(=O)NC(C)(C)C(=O)N[C@@H](CCCNC(=N)N)C(=O)N[C@@H](CCCNC(=N)N)C(=O)N[C@@H](C)C(=O)N[C@@H](CCC(N)=O)C(=O)N[C@@H](C)C(=O)N[C@@H](Cc1ccccc1)C(=O)N[C@H](C(=O)N[C@@H](CCCCN)C(=O)N[C@@H](Cc1ccncc1)C(=O)N[C@@H](CC(C)C)C(=O)N[C@@H](CC(C)C)C(=O)N[C@@H](CO)C(=O)N[C@H](C(=O)O)[C@@H](C)O)C(C)C)[C@@H](C)O)[C@@H](C)O) [Example 3 compound (glucagon analog agonist, SEQ ID NO:5)] | – | – | – | – | – | < 5 | > 9950 | 0.188 | 0.0108 | 1300 | 21.7 | 2.08 | 109 | – |
| HS[Dab](Ac)GTFTSDYSKYLD[Aib]RRAQQFVK[4Pal]LLST-OH (N-terminus assumed; SMILES CC(=O)NCC[C@H](NC(=O)[C@H](CO)NC(=O)[C@@H](N)Cc1c[nH]cn1)C(=O)NCC(=O)N[C@H](C(=O)N[C@@H](Cc1ccccc1)C(=O)N[C@H](C(=O)N[C@@H](CO)C(=O)N[C@@H](CC(=O)O)C(=O)N[C@@H](Cc1ccc(O)cc1)C(=O)N[C@@H](CO)C(=O)N[C@@H](CCCCN)C(=O)N[C@@H](Cc1ccc(O)cc1)C(=O)N[C@@H](CC(C)C)C(=O)N[C@@H](CC(=O)O)C(=O)NC(C)(C)C(=O)N[C@@H](CCCNC(=N)N)C(=O)N[C@@H](CCCNC(=N)N)C(=O)N[C@@H](C)C(=O)N[C@@H](CCC(N)=O)C(=O)N[C@@H](CCC(N)=O)C(=O)N[C@@H](Cc1ccccc1)C(=O)N[C@H](C(=O)N[C@@H](CCCCN)C(=O)N[C@@H](Cc1ccncc1)C(=O)N[C@@H](CC(C)C)C(=O)N[C@@H](CC(C)C)C(=O)N[C@@H](CO)C(=O)N[C@H](C(=O)O)[C@@H](C)O)C(C)C)[C@@H](C)O)[C@@H](C)O) [Example 4 compound (glucagon analog agonist, SEQ ID NO:6)] | – | – | – | – | – | < 5 | > 9950 | 0.083 | 0.00888 | 1270 | 13.5 | 1.2 | 100 | 98 |
| HSQGTFTSDYSKYLD[Aib]RRAQQFVK[4Pal]LLST-OH (N-terminus assumed; SMILES CC(C)C[C@H](NC(=O)[C@H](Cc1ccncc1)NC(=O)[C@H](CCCCN)NC(=O)[C@@H](NC(=O)[C@H](Cc1ccccc1)NC(=O)[C@H](CCC(N)=O)NC(=O)[C@H](CCC(N)=O)NC(=O)[C@H](C)NC(=O)[C@H](CCCNC(=N)N)NC(=O)[C@H](CCCNC(=N)N)NC(=O)C(C)(C)NC(=O)[C@H](CC(=O)O)NC(=O)[C@H](CC(C)C)NC(=O)[C@H](Cc1ccc(O)cc1)NC(=O)[C@H](CCCCN)NC(=O)[C@H](CO)NC(=O)[C@H](Cc1ccc(O)cc1)NC(=O)[C@H](CC(=O)O)NC(=O)[C@H](CO)NC(=O)[C@@H](NC(=O)[C@H](Cc1ccccc1)NC(=O)[C@@H](NC(=O)CNC(=O)[C@H](CCC(N)=O)NC(=O)[C@H](CO)NC(=O)[C@@H](N)Cc1c[nH]cn1)[C@@H](C)O)[C@@H](C)O)C(C)C)C(=O)N[C@@H](CC(C)C)C(=O)N[C@@H](CO)C(=O)N[C@H](C(=O)O)[C@@H](C)O) [Example 1 compound (glucagon analog agonist, SEQ ID NO:3)] | – | – | – | – | – | < 5 | > 9950 | 0.135 | 0.0143 | 181 | 17.4 | 3.18 | 105 | 103 |
| HSQGTFTSDYSKYLD[Aib]RRAQAFVK[4Pal]LLST-OH (N-terminus assumed; SMILES CC(C)C[C@H](NC(=O)[C@H](Cc1ccncc1)NC(=O)[C@H](CCCCN)NC(=O)[C@@H](NC(=O)[C@H](Cc1ccccc1)NC(=O)[C@H](C)NC(=O)[C@H](CCC(N)=O)NC(=O)[C@H](C)NC(=O)[C@H](CCCNC(=N)N)NC(=O)[C@H](CCCNC(=N)N)NC(=O)C(C)(C)NC(=O)[C@H](CC(=O)O)NC(=O)[C@H](CC(C)C)NC(=O)[C@H](Cc1ccc(O)cc1)NC(=O)[C@H](CCCCN)NC(=O)[C@H](CO)NC(=O)[C@H](Cc1ccc(O)cc1)NC(=O)[C@H](CC(=O)O)NC(=O)[C@H](CO)NC(=O)[C@@H](NC(=O)[C@H](Cc1ccccc1)NC(=O)[C@@H](NC(=O)CNC(=O)[C@H](CCC(N)=O)NC(=O)[C@H](CO)NC(=O)[C@@H](N)Cc1c[nH]cn1)[C@@H](C)O)[C@@H](C)O)C(C)C)C(=O)N[C@@H](CC(C)C)C(=O)N[C@@H](CO)C(=O)N[C@H](C(=O)O)[C@@H](C)O) [Example 2 compound (glucagon analog agonist, SEQ ID NO:4)] | – | – | – | – | – | < 5 | > 9950 | 0.204 | 0.0265 | 250 | 34.2 | 6.87 | 109 | – |
